Results on one substance are retold here after US20250179160A1.

The EC50 (read off the curve) is the concentration giving half of the maximal effect.

Test [1] addresses recombinant human mature Factor D (human) (UniProt P00746). Briefly: ELISA: antibody titrated 3-fold from 3 ug/ml on plate coated with 1 ug/ml recombinant human mature Factor D; HRP anti-mouse, rat or human secondary; OD450. (In an ELISA, binding on a coated surface is turned into a signal by an enzyme label.)
Test [2] addresses recombinant human Pro-Factor D (human) (UniProt P00746). The test is described as follows: ELISA: antibody titrated 3-fold from 3 ug/ml on plate coated with 1 ug/ml recombinant human pro-Factor D; HRP anti-mouse, rat or human secondary; OD450.

MAB18241 (antibody): the values for the 50% effective concentration (EC50 (read off the curve)) in test [1] and in test [2] were 0.04 µg/mL and 0.02 µg/mL, respectively.
